# Square brackets hold non-standard residues; d marks the D form. Peptide text beside a SMILES is read from it. * marks the point of attachment. IRDye800CW = CC1(C)C(/C=C/C2=C(Oc3ccc(S(=O)(=O)O)cc3)C(=C/C=C3/N(CCCCS(=O)(=O)O)c4ccc(S(=O)(=O)O)cc4C3(C)C)/CCC2)=[N+](CCCCCC(=O)*)c2ccc(S(=O)(=O)[O-])cc21; Cha = N[C@@H](CC1CCCCC1)C(=O)O; AEEA = NCCOCCOCC(=O)O
# Experiments:
# [1] = test system: orthotopic GBM (U-87 MG-luc2 cells); experiment: dynamic NIR imaging of orthotopic GBM on cross sectioned brain (Fluobeam); type: in vivo, mice; settings: for tumor mean fluorescence intensity (MFI): 333 ms exposure
# Experimental: All experimental procedures in animals were carried out in accordance with the approval by The Animal Experiments Inspectorate, Denmark. 7-10-week-old female nude mice (strain: Rj:NMRI-Foxn1nu/nu, JANVIER LABS, France) were orthotopically xenografted with U-87 MG-luc2 cells.
# The orthotopic GBM tumor model was established by inoculation of 500.000 cells in 10 μL ice cold PBS in the right hemisphere (1.5 mm lateral and 0.5 mm posterior to the bregma at 2 mm depth) using a stereotaxic frame (KOPF INSTRUMENTS, Tujunga, Calif., USA) with the automated microinjection pump UMP3 (WPI, Sarasota, Fla., USA). The cells were injected over 5 min with the syringe kept in place for further 3 min before retraction. Tumor growth was subsequently monitored on MRI with the BioSpec 7T (Bruker, Billerica, Mass., USA) with axial and coronal T2-wighted sequences. When the tumor size reached 2-17 mm^3, the animals were included in the fluorescence imaging protocol.
# All image acquisition was performed with the Fluobeam system with (Fluosoft version: 2.2.1) (Fluoptics, Grenoble, France). To characterize the in vivo biodistribution and tumor imaging properties, IRDye800-AE344 was administered through tail vein injection into all the GBM bearing mice (n=35) at four different doses: 1 nmol, 3 nmol, 6 nmol, and 12 nmol. Two mice were sacrificed for each time point and the brain was removed and cross sectioned through the tumor for imaging. […] Accordingly, image acquisition was performed at following time points after injection: • 1 nmol: 0.5 h, 1 h, and 2 h • 3 nmol: 1 h, 2 h, 3 h, and 5 h • 6 nmol: 1 h, 3 h, 6 h, and 12 h • 12 nmol: 1 h, 3 h, 5 h, 10 h, 15 h, and 24 h
# Images were analyzed and processed in ImageJ 1.52a, NIH, USA. Signal measurements were performed on the raw images generated by the Fluoptics system. Tumor signal was measured as a mean fluorescence intensity of the whole tumor and background signal was measured as the mean of a representative area with no tumor on the contralateral hemisphere. Presented pictures are contrast enhanced in ImageJ with the Contrast Enhancement (Saturated pixels: 0.3%).
# [2] = biodistribution by organ fluorescence imaging; type: in vivo, mice; settings: 3 nmol, 1 h
# From the text: […] Due to renal excretion, the fluorescence signal in the kidneys were out of scale compared to all the other organs. […] The skin was imaged partially (1.25 g) and the biodistribution was extrapolated with respect to the full weight of the skin (4.9 g).
compound,measurement,setting,value
"CC(C)C[C@H](NC(=O)[C@H](Cc1ccc(O)cc1)NC(=O)[C@@H](CCCNC(=N)N)NC(=O)[C@@H](CO)NC(=O)[C@H](Cc1ccccc1)NC(=O)[C@H](CC1CCCCC1)NC(=O)[C@H](CC(=O)O)NC(=O)COCCOCCNC(=O)COCCOCCNC(=O)[C@H](CCC(=O)O)NC(=O)[C@H](CCC(=O)O)NC(=O)CCCCC[N+]1=C(/C=C/C2=C(Oc3ccc(S(=O)(=O)O)cc3)C(=C/C=C3/N(CCCCS(=O)(=O)O)c4ccc(S(=O)(=O)O)cc4C3(C)C)/CCC2)C(C)(C)c2cc(S(=O)(=O)[O-])ccc21)C(=O)N[C@@H](Cc1c[nH]c2ccccc12)C(=O)N[C@@H](CO)C(=O)O [IRDye800CW-AE344, IRDye800-Glu-Glu-O2Oc-O2Oc-Asp-Cha-Phe-D-ser-D-arg-Tyr-Leu-Trp-Ser-OH] (IRDye800CW-EE[AEEA][AEEA]D[Cha]F[dS][dR]YLWS-OH)",maximal TBR,"[1]; 1 nmol, at 0.5 h",4.4
same,tumor mean fluorescence intensity (MFI),"[1]; 1 nmol, at time of maximal TBR (0.5 h)",29 a.u.
same,maximal TBR,"[1]; 3 nmol, at 1 h",6.6
same,tumor mean fluorescence intensity (MFI),"[1]; 3 nmol, at time of maximal TBR (1 h)",77 a.u.
same,TBR,"[1]; 6 nmol, 1 h",4.7
same,tumor MFI,"[1]; 6 nmol, 1 h",108 a.u.
same,tumor mean fluorescence intensity (MFI),"[1]; 6 nmol, 3 h",82 a.u.
same,TBR (highest),"[1]; 6 nmol, 3 h after injection",7.0
same,TBR,"[1]; 6 nmol, 6 h",6.1
same,TBR,"[1]; 6 nmol, 12 h",4.5
same,decrease in tumor MFI,"[1]; 6 nmol, from 1 h to 3 h",24%
same,TBR,"[1]; 6 nmol, from 1 h to 12 h after injection",above 4.5
same,peak time of TBR,[1]; 12 nmol,15 h
same,tumor MFI relative to that at 6 nmol,[1]; 12 nmol,58%
same,maximal TBR,"[1]; 12 nmol, at 15 h",6.7
same,tumor mean fluorescence intensity (MFI),"[1]; 12 nmol, at time of maximal TBR (15 h)",48 a.u.
same,MFI brain,[2]; 333 ms exposure,19 a.u.
same,MFI liver,[2]; 333 ms exposure,88 a.u.
same,MFI lungs,[2]; 333 ms exposure,101 a.u.
same,MFI skin,[2]; 333 ms exposure,99 a.u.
same,MFI tumor,[2]; 333 ms exposure,65 a.u.
same,normalized uptake brain,[2]; normalized to skin=100,0.7
same,normalized uptake colon,[2]; normalized to skin=100,4.0
same,normalized uptake heart,[2]; normalized to skin=100,0.4
same,normalized uptake kidneys,[2]; normalized to skin=100,38.8
same,normalized uptake liver,[2]; normalized to skin=100,12.2
same,normalized uptake lungs,[2]; normalized to skin=100,4.2
same,normalized uptake pancreas,[2]; normalized to skin=100,3.4
same,normalized uptake small intestine,[2]; normalized to skin=100,11.2
same,normalized uptake spleen,[2]; normalized to skin=100,0.4
same,normalized uptake tumor,[2]; normalized to skin=100,0.1
same,normalized uptake ventricle,[2]; normalized to skin=100,0.9
same,normalized uptake skin,[2]; skin = reference,100
same,MFI kidneys,[2]; extrapolated from 40 ms exposure,"1,236 a.u."
